Drawing on a protein production outcome set (Wang et al. 2014), this text covers protein production for six sequences.

A short description of the data set: label from the status in PepcDB records.
For “MPFTLHLRSRLPSAIRSLILQKKPNIRNTSSMAGELRPASLVVLPRSLAPAFERFCQVNTGPLPLLGQSEPEKRMLPPQGAISETRMGHPQFWKYEFGACTGSLASLEQYSEQLKDMVAFFLGCSFSLEEALEKAGLPRRDPAGHSQAGAYKTTVPCVTHAGFCCPLVVTMRPIPKDKLEGLVRACCSLGGEQGQPVHMGDPELLGIKELSKPAYGDAMVCPPGEVPVFWPSPLTSLGAVSSCETPLAFASIPGCTVMTDLKDAKAPPGCLTPERIPEVHHISQDPLHYSIASVSASQKIRELESMIGIDPGNRGIGHLLCKDELLKASLSLSHARSVLITTGFPTHFNHEPPEETDGPPGAVALVAFLQALEKEVAIIVDQRAWNLHQKIVEDAVEQGVLKTQIPILTYQGGSVEAAQAFLCKNGDPQTPRFDHLVAIERAGRAADGNYYNARKMNIKHLVDPIDDLFLAAKKIPGISSTGVGDGGNELGMGKVKEAVRRHIRHGDVIACDVEADFAVIAGVSNWGGYALACALYILYSCAVHSQYLRKAVGPSRAPGDQAWTQALPSVIKEEKMLGILVQHKVRSGVSGIVGMEVDGLPFHNTHAEMIQKLVDVTTAQV”, the protein production entry is “failed”. The entry for “MIFIKKPSLKALSCASILFALSGCVPPNQFGEDYSRDVCKTKRDELIALDNHFSSNMVAGGIIGTLAGAGLGAAAAAATNGDIITATLIGAAAGMAVGAGSAYWNELSKQHGEGELLLFSLLGDMRRDEEKVTKAQIALDNLMSCRRTEAAQVHADYRAKRISAQEAKTRMEAIRRRAEKDVSVAKDINKGVQDRRGSYEYAFEQSKKIKTKNKKDKKKIEKTYTSMDKYCGSYNTSVQVAETSLNTEFKADGFTSSYLIYPDSTPNTQISCR” is “failed”. The entry for “MPQNYPWLNTEQPLSIKQLNGRVVILDFWTYCCINCLHVLPDLKYLEQKYKDSLTVIGVHSAKFDNEQETENIRQAILRYDIEHPVLVDKDFRVWQEYAVRAWPTLMVIDPKGYVIGYVSGEGNRDKLDQLITQVIQEHQGAINFQQLSLTLEKQRQPLITPLAFPGKVLATPSGLFVADSGHHRIVVSDFNGEILHLIGNGKSGLTDGNFQEAQFSAPQGMAFDMENQILYLADTENHALRRVDINQQTVETIAGTGEQSRNIQPHGGVGLETALNSPWDLVNIENSLYIAMAGVHQIWQMDLASGVIKTYAGTGVEACLDASLTESAFAQPSGITNNEQELYIADSEISSIRGVGLVEPQEVRTVCGSGGLFGFGDVDGQGEDVRLQHCLGVEYFQNYLWVADTYNHKIKSVSPHTGNCQTVLGDGLAGLQNGQGKNTRFFEPSGLSAIDSYLYISDTNNHVIRRVDLRTLEVTTMQFNGLCAPDVCIPNNFLEHHHHHH” is “not failed”; for “APIKGVTFGEDTVWEVQGYKNVRITFELDERVDKVLNEKCSVYTVESGTEVTEFACVVAEAVVKTLQPVSDLLTNMGIDLDEWSVATFYLFDDAGEENFSSRMYCSFYPPDE” it is “not failed”.

In the case of “MTIRMIPHPIFSSPTKRRREKPDPPARAGAAQPSGPARMTPQQQTEWQQRLIALLESQPPDDDGAHDLSHLHRVWAVARTLLAHYPDADSIVVMAGSYLHDLVNLPKNHPQRQLASHWSAERARQLLADSGLTEAQLDNLAHAIEAHSYSAAIPPRTLEARIVQDADRMDALGPVGLARMFYVSGRMGRALAHPLDPLAEHRGRDDQAWAIDHIDVKLAKLPGMMQTEAGRAMAERKLEWLFHFRDEFCRDWMARLEHHHHHH”, the protein production entry is “not failed”. With “MNANQFLKAVSQLQGWRECAFLLALAERSFPNYALFADAVGLKTGGKMRQLLDLAWDMLQKDVADAAIPQLLSKLETLCPNVDEYDAYGVYPAFDFCQLLEQALLNRLNPNKHRATEASQLATRTVMDFVEMSEGEGMDENELVRVFEHHPLLKDDKLFQRDTVMALYYYRTPKEAFLAELRAGAANDGVSNLGISLEG”, the protein production result is “not failed”.
